The values that follow come from PMC4205155.

For this data set, the target named is T1, CREB B-ZIP DNA binding domain (UniProt P16220 269-327).
T1 sequence: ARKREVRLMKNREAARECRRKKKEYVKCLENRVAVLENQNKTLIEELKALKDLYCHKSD
The experiment in a line: EMSA. Background: A gel shift assay detects complexes by their altered migration in electrophoresis.

B1: CRE 28-mer unmethylated (U) (dsDNA)
DNA 1: GTCAGTCAGATGACGTCATATCGGTCAG
DNA 2: CTGACCGATATGACGTCATCTGACTGAC
In the case of B1, the binding result was “binds”.
